Reference: patent US20210101964A1 (UCB, published 2021)
Values belong to the binder of their own block, whether it stands above or below them. Ends that are not written are not given here.

B1: rat-mouse chimeric recombinant antibody 5811 mFab (Fab, V domains shown)
VH: EMQLVESGGGLVQPKESLKISCAASGFTFNNAAMYWVRQAPGKGLEWVARIRTKPNNYATSYADSVKGRFTISRDDSKSMVYLQMDNLKSEDTAMYYCTADYSRGDRWGQGVMVTVSS
VL: NIQMTQSPPVLSASVGDRVTLSCKASQNINKNLDWYQQKHGEAPKLLMYYANNLQTGIPSRFSGSGSGTDYTLTISSLQPEDVATYYCYQYKNGWTFGGGTKLELKR

Tests used:
[1] = target: B1; assay: competitive SPR (Biacore 3000): 50 nM 5811 mFab pre-incubated with 1 µM peptide, injected over immobilised human alpha synuclein monomer and fibrils
Procedure: Recombinant human alpha synuclein monomer and pre-formed alpha synuclein fibrils were immobilized on a CM5 chip using a Biacore 3000 instrument (GE Healthcare). Following activation of the carboxymethyl dextran surface by injection of 100 μl of a fresh 1:1 (v/v) mixture of 50 mM N-hydroxysuccimide and 200 mM 1-ethyl-3-(3-dimethylaminopropyl)-carbodiimide at a flow rate of 10 μl/min HBS-EP (GE Healthcare) as running buffer, coupling was achieved by injecting 100 μl of monomer and fibrils, at 5 μM in 10 mM acetate pH 5.0, over separate flow cells. A reference flow cell was activated in the same manner and then all flow cell surfaces were deactivated with a 50 μl pulse of 1 M ethanolamine.HCl pH 8.5.
Peptide solutions were prepared in running buffer at 100 μM and a peptide blank control prepared as a 1 in 100 dilution of DMSO in running buffer. […] Sensograms were recorded for each sample by injecting 30 μl of the mixture at 10 μl/min and recording a report point 5 seconds before the end of the injection. The chip was regenerated at the end of each cycle by two 10 μl injections of 40 mM HCl and one injection of 5 mM NaOH. Control cycles were alternated with peptide cycles.

[2] = target: T1, recombinant full-length human alpha synuclein monomer (human, UniProt P37840 1-140); assay: SPR (Biacore T200), antigen amine-coupled to CM5 chip, Fab as analyte, 1:1 model
Procedure: (§1) Interaction kinetics were determined by using surface plasmon resonance technology on a Biacore T200 instrument. Three different ligands including recombinant full-length human alpha synuclein monomer, purified recombinant human alpha synuclein fibrils, and purified recombinant mouse alpha synuclein fibrils, prepared as described herein, were each immobilized on three different flow cells of a CM5 chip surface using amine-coupling chemistry. The three ligands were prepared in 10 mM NaAc, pH 3.5, and immobilized onto separate flow cell surfaces to reach an immobilization level of about 30 response units (RU) for alpha synuclein monomer, about 40 RU for human alpha synuclein fibrils, and about 300 RU for mouse alpha synuclein fibrils respectively, at a flow rate of 10 μl/min. The buffer HBS-EP+(GE healthcare Bio-Sciences AB) was used as running buffer for both ligand immobilization and kinetics assay. […] The surface was regenerated by one injection of 50 mM HCl for 90 s at 10 μl/min, and another injection of 50 mM HCl for 60 s at 10 μl/min. The data were analyzed using the Biacore T200 evaluation software (version 3.0) using the bivalent analyte model with assumed no bulk contribution (RI=0) and global Rmax for mIgG1 format, and 1:1 model with flexible bulk contribution (local RI) and global Rmax.

[3] = target: T2, recombinant human alpha synuclein fibrils (human, UniProt P37840 1-140); assay: as above
Procedure: as §1

[4] = target: T3, recombinant mouse alpha synuclein fibrils (mouse, UniProt O55042 1-140); assay: as above
Procedure: as §1

[5] = target: T4, biotinylated peptide corresponding to residues 117 to 126 of human alpha synuclein (PVDPDNEAYE) (human, also: biotinylated, position not given here); assay: streptavidin-capture ELISA on biotinylated peptide PVDPDNEAYE, HRP secondary antibody, TMB, OD 630 nm
T4 construct: Captured on streptavidin plates for the ELISA
T4 peptide: PVDPDNEAYE

[6] = target: T5, human beta synuclein (rPeptide) (human, UniProt Q16143 1-134); assay: Western blot
T5 construct: also called rPeptide beta synuclein; human betα-synuclein
T5 sequence (Q16143 whole entry): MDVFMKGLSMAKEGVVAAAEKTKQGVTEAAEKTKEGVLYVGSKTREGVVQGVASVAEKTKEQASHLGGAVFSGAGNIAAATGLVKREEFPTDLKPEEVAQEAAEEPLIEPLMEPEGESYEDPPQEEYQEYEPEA
Procedure: The binding of antibodies raised against human alpha synuclein to human beta synuclein were tested by Western blot using rPeptide beta synuclein. […] The membrane was blocked in PBS with 3% BSA and 0.1% Tween20. […] The blot was washed extensively in PBS with 0.1% Tween20, PBS and water. Chemi-luminescence was measured after addition of ECL Western blot substrate (Pierce).
The blot was washed after 1-hour incubation at room temperature with 0.1% Tween in PBS.

[7] = target: T1, recombinant full-length human alpha …; assay: SPR (Biacore T200), antigen amine-coupled to CM5 chip, IgG as analyte, bivalent analyte model (KD1)
Procedure: as §1

[8] = target: T2, recombinant human alpha synuclein …; assay: as above
Procedure: as §1

[9] = target: T3, recombinant mouse alpha synuclein …; assay: as above
Procedure: as §1

[10] = target: T2, recombinant human alpha synuclein …; assay: kinetics on alpha synuclein fibrils; method not named in Example 4 (ka1/kd1 as in the Biacore bivalent analyte model)
[11] = target: T2, recombinant human alpha synuclein …; assay: cell-based or functional assay
[12] = target: T2, recombinant human alpha synuclein …; assay: cell-based or functional assay; remark: listed apart in the source
[13] = target: T2, recombinant human alpha synuclein …; assay: kinetics on human fibril; method not named (same values as Table 5)

binding result [1]: binds
Binder: Ac-DMPVDPDNEA-NH2 [peptide AS115-124]

Binder: B1
Kd [2]: 0.29 nM
Kd [3]: 0.6 nM
Kd [4]: 42.9 nM
EC50 (read off the curve) [5]: ~0.4 mg/L

Kd [7]: 0.53 nM
Kd [8]: 0.03 nM
Kd [9]: 119 nM
B2: rat-mouse chimeric recombinant antibody 5811 mIgG1 (antibody, V domains shown)
VH: EMQLVESGGGLVQPKESLKISCAASGFTFNNAAMYWVRQAPGKGLEWVARIRTKPNNYATSYADSVKGRFTISRDDSKSMVYLQMDNLKSEDTAMYYCTADYSRGDRWGQGVMVTVSS
VL: NIQMTQSPPVLSASVGDRVTLSCKASQNINKNLDWYQQKHGEAPKLLMYYANNLQTGIPSRFSGSGSGTDYTLTISSLQPEDVATYYCYQYKNGWTFGGGTKLELKR
binding result [6]: no binding (tested: 1 micro gram of synuclein per lane)

Kd [10]: 0.0156 nM
B3: Chimeric rat-human 5811 antibody (antibody, V domains shown)
VH: EMQLVESGGGLVQPKESLKISCAASGFTFNNAAMYWVRQAPGKGLEWVARIRTKPNNYATSYADSVKGRFTISRDDSKSMVYLQMDNLKSEDTAMYYCTADYSRGDRWGQGVMVTVSS
VL: NIQMTQSPPVLSASVGDRVTLSCKASQNINKNLDWYQQKHGEAPKLLMYYANNLQTGIPSRFSGSGSGTDYTLTISSLQPEDVATYYCYQYKNGWTFGGGTKLELK
notes: It was prepared like the humanized antibodies, with the human kappa constant region (Km3) and human gamma-4 with S241P (IgG4P); also called parental rat-human antibody

binding result [1]: no binding (tested: 1 µM)
Binder: Ac-QEGILEDMPV-NH2 [peptide AS109-118]

binding result [1]: no binding (tested: 1 µM)
Binder: Ac-EGYQDYEPEA-OH (also called AS131-140) [131-140]

binding result [1]: no binding (tested: 1 µM)
Binder: Ac-SEEGYQDYEP-NH2 [129-138]

binding result [1]: no binding (tested: 1 µM)
Binder: Ac-YEMPSEEGYQ-NH2 [peptide AS125-134]

binding result [1]: no binding (tested: 1 µM)
B4: peptide AS104-113 (peptide)
peptide: Ac-EEGAPQEGIL-NH2
notes: Synthetic peptide of human alpha synuclein

binding result [1]: binds
Binder: Ac-DPDNEAYEMP-NH2 [peptide AS119-128]

binding result [1]: no binding (tested: 1 µM)
Binder: Ac-DNEAYEMPSE-NH2 [peptide AS121-130]

binding result [1]: binds
Binder: Ac-LEDMPVDPDN-NH2 [peptide AS113-122]

binding result [1]: no binding (tested: 1 µM)
Binder: Ac-GILEDMPVDP-NH2 [peptide AS111-120]

IC50, aggregation assay on mouse primary neurons (pSer129 alpha synuclein signal) [11]: < 5 nM
IC50, cell-based aggregation assay (HEK cells expressing alpha synuclein, % pSer129+ cells) [11]: ≤ 5 nM
Kd [10]: 0.0159 nM
koff [10]: 5.17e-05 s⁻¹
kon [10]: 3.26e+06 M⁻¹ s⁻¹
B5: Antibody 5811gL8gH4 IgG4P (antibody, V domains shown)
VH: EVQLVESGGGLVKPGGSLRLSCAASGFTFNNAAMYWVRQAPGKGLEWVARIRTKPNNYATSYADSVKGRFTISRDDSKNTLYLQMNSLKTEDTAVYYCTADYSRGDRWGQGTMVTVSS
VL: DIQMTQSPSSLSASVGDRVTITCKASQNINKNLDWYQQKPGKAPKLLIYYANNLQTGVPSRFSGSGSGTDFTLTISSLQPEDFATYYCYQYKNGWTFGQGTKVEIKR

IC50, aggregation assay on mouse primary neurons (pSer129 alpha synuclein signal) [11]: < 5 nM
IC50, cell-based aggregation assay (HEK cells expressing alpha synuclein, % pSer129+ cells) [11]: ≤ 5 nM
IC50 (nM), cell-based aggregation assays [12]: < 5 nM
Kd [13]: 0.015 nM
koff [13]: 4.1e-05 s⁻¹
kon [13]: 2.74e+06 M⁻¹ s⁻¹
Kd [10]: 0.015 nM
koff [10]: 4.1e-05 s⁻¹
kon [10]: 2.74e+06 M⁻¹ s⁻¹
B6: Antibody 5811gL5gH4 IgG4P (antibody, V domains shown)
VH: EVQLVESGGGLVKPGGSLRLSCAASGFTFNNAAMYWVRQAPGKGLEWVARIRTKPNNYATSYADSVKGRFTISRDDSKNTLYLQMNSLKTEDTAVYYCTADYSRGDRWGQGTMVTVSS
VL: DIQMTQSPSSLSASVGDRVTITCKASQNINKNLDWYQQKPGKAPKLLIYYANNLQTGVPSRFSGSGSGTDYTLTISSLQPEDFATYYCYQYKNGWTFGQGTKVEIKR
notes: also called VR5811

IC50, aggregation assay on mouse primary neurons (pSer129 alpha synuclein signal) [11]: < 5 nM
IC50, cell-based aggregation assay (HEK cells expressing alpha synuclein, % pSer129+ cells) [11]: ≤ 5 nM
Kd [10]: 0.0185 nM
koff [10]: 2.04e-05 s⁻¹
kon [10]: 1.1e+06 M⁻¹ s⁻¹
B7: Antibody 5811gL14gH4 IgG4P (antibody, V domains shown)
VH: EVQLVESGGGLVKPGGSLRLSCAASGFTFNNAAMYWVRQAPGKGLEWVARIRTKPNNYATSYADSVKGRFTISRDDSKNTLYLQMNSLKTEDTAVYYCTADYSRGDRWGQGTMVTVSS
VL: DIQMTQSPSSLSASVGDRVTITCKASQNINKNLDWYQQKPGKAPKLLIYYANNLQTGVPSRFSGSGSGTDFTLTISSLQPEDFATYYCYQYKNAWTFGQGTKVEIKR

binding result [1]: no binding (tested: 1 µM)
Binder: Ac-MPSEEGYQDY-NH2 [peptide AS127-136]

binding result [1]: no binding (tested: 1 µM)
Binder: Ac-EAYEMPSEEG-NH2 [peptide AS123-132]
